Measurements reported in patent US10227575B2, “Multi-domain enzymes having cutinase activity, compositions comprising same and uses thereof” (OZYMES, priority 2015, dated 2019).
Marks after values point to notes of the source that are not given here.

Assays:
[1] = Specific activity of purified enzymes (standard esterase assay); assay type: biochemical; details: for Enzymatic activity of the purified variant: pNP-palmitate; for Spec. Act. (U/mg): towards pNP-palmitate (standard assay)
Description: In summary, using different techniques for enzyme purification, pure enzyme preparations were obtained and tested for their activity towards a standard esterase substrate, pNP-palmitate. Enzymatic activities of the purified variants are summarized below:
(§1) Esterase activity was determined by monitoring the formation of para-nitrophenol (pNP) at 410 nm from various pNP-esters using a Beckman UV spectrophotometer (model DU 640). Substrates were completely dissolved in 2-propanol (8 mM) and were then added to 50 mM Tris/HCl buffer pH 8.0 to give a final substrate concentration of 0.8 mM. The reaction (1 mL) was started by adding an appropriate amount of enzyme. One enzyme unit (U) was defined as the amount of enzyme that produced 1 μmol of product (pNP) per min; specific activity was expressed as U/mg protein. A molar extinction coefficient of 15 mM^−1 cm^−1 was used for the calculation.

[2] = KrCUT activity in the presence of chelating agents; assay type: biochemical
[3] = Enzyme substrate profiles, esterase assays; assay type: biochemical; details: highest activity towards a specific substrate set to 100%
Description: as §1

[4] = Adsorption assay on PHB granules (Langmuir isotherm); assay type: binding
Description: Purified KrCUT of concentrations ranging from 0.16 to 3.2 mg/mL were mixed with 25 mg PHB in 50 mM sodium phosphate (pH 8.0) in a total volume of 1 mL and mixed by gently shaking for 3 h. The PHB polymer was removed by centrifugation and the concentration of protein in the supernatant was determined by the BCA method. The concentration of bound protein at a particular concentration of cutinase was calculated as the difference between a control without added PHB and free cutinase after incubation with PHB.
Adsorption assays were carried out following procedures of Kasuya et al. (1999). Purified KrCUT and KrCUT189 at concentrations ranging from 0.16 to 3.2 mg/mL were added to a suspension of 25 mg PHB in 50 mM sodium phosphate (pH 8.0) in a total volume 1 mL. The mixture was incubated at room temperature with gentle shaking for at least 3 h. The PHB polymer was removed by centrifugation and the concentration of protein in the supernatant was determined by the BCA method. The concentration of bound protein at a particular concentration of cutinase was calculated as the difference between a control without added PHB and free cutinase after incubation with PHB. An isotherm of [Bound](mg/mg PHB) vs [Free] (mM) was generated and binding parameters were determined by non-linear regression using the Langmuir equation:
[formula] where [E]=Ead+[E]e, is the concentration of the protein added; Emax is the maximum amount of protein adsorbed on the polyester granules, and K is the adsorption equilibrium constant of the protein.

[5] = Thermostability of purified enzymes; assay type: physicochemical
Description: Enzyme thermostability was studied over a temperature range of 50-95° C. using the purified enzyme preparations. Aliquots were incubated at the desired temperature for 5, 10, 30, 60, and 120 minutes, chilled on ice, and assayed for remaining activity towards p-NP-palmitate (pNPP) at room temperature.

[6] = Potential inhibitors of cutinase activity; assay type: biochemical
Description: Esterase activity was determined by monitoring the formation of pNP at 410 nm from various pNP-esters using a Beckman UV spectrophotometer (model DU 640) (21). Substrates were dissolved in isopropanol and were added to 50 mM sodium phosphate buffer pH 8.0 to give 10% (v/v) total isopropanol concentration in a 1 mL reaction volume. pNP-butyrate was used at a final concentration of 1.2 mM. For pNP-caprylate, myristate and palmitate, the final concentration ranged from 0.1 to 0.5 mM. The reaction (1 mL) was started by adding an appropriate amount of enzyme. One enzyme unit (U) is defined as the amount of enzyme that produced 1 μmol of product (pNP) per min; specific activity is expressed as U/mg protein. A molar extinction coefficient of 15 mM^−1 cm^−1 for pNP is used for calculating enzyme activity.
KrCUT cutinase activity was assayed as described in Example 1, section 1.6 in the presence of various chemicals using p-NP palmitate as substrate under standard assay conditions. […] Cu^2+ at 1.0 mM had little effect. The enzyme was not affected by the metal-chelating agent EDTA even at 10 mM. The anionic surfactant SDS was a strong inhibitor of cutinase even at 0.01% retaining only 28% activity. […] Dimethylsulfoxide (at 30%) and dimethylformide (at 5%) inhibited cutinase activity by about 70%.

B1: KrCUT: mature Kineococcus radiotolerans cutinase, amino acids 34-294 of SEQ ID NO: 1; SEQ ID NO: 6 (protein)
chain: ATCSDVDVVFARGTGETPGLGVVGGPFVRSLTGELSDRTVTSHAVDYAASSSQASAGPGATAMSAHVREVAAACPSTRFVLGGYSQGATVTDIALGIRTGTTTGTPVPAELAGRVAAVVVFGNPLGLSGRTIATASSTYGPKSKDYCNSSDSVCGSAPKTGTGGHLSYASNGSTTDGARFAAGLVRAAGTPTTPTPTPTPTPVPTTCVRDSTRDHVAADRAVSLYGRAYARGSRDSLGATSSYNVVSLQQVEGGWRLVTAC
modifications: Kineococcus radiotolerans; (1)..(261) KrCUT (lacking residues 1-33 of ssKrCUT)
[1]
  Enzymatic activity of the purified variant: 197 ± 3 U/mg
  Spec. Act. (U/mg): 197 ± 3 U/mg
[2]; EDTA 10% w/v
  effect of EDTA on KrCUT activity: does not inhibit
[2]; GLDA 5% w/v
  activity retained in the presence of GLDA: 100%
[3]
  Relative activity, pNP-acetate (C2): 2%
  Relative activity, pNP-butyrate (C4): 26 ± 2%
  Relative activity, pNP-caprylate (C8): 25 ± 3%
  Relative activity, pNP-decanoate (C10): 25 ± 3%
  Relative activity, pNP-myristate (C14): 100* %
  Relative activity, pNP-palmitate (C16): 98 ± 6%
[4]
  binding to PHB: binds efficiently
  degradation of PHB: did not degrade
[4]; 25° C., pH 8.0
  adsorption equilibrium constant (K): 0.12±0.03 ml/mg PHB
  maximum amount of cutinase absorbed on the PHB granules (Emax): 23.68 ± 0.03 µg/mg
[5]; 50° C., 5 min, time 0 = 100%
  Relative activity remaining (thermostability): 61 ± 5%
[5]; 50° C., 10 min, time 0 = 100%
  Relative activity remaining (thermostability): 31 ± 4%
[5]; 50° C., 30 min, time 0 = 100%
  Relative activity remaining (thermostability): 12 ± 2%
[5]; 50° C., 60 min, time 0 = 100%
  Relative activity remaining (thermostability): 6%
[5]; 55° C., 5 min, time 0 = 100%
  Relative activity remaining (thermostability): 45 ± 4%
[5]; 55° C., 10 min, time 0 = 100%
  Relative activity remaining (thermostability): 26 ± 4%
[5]; 55° C., 30 min, time 0 = 100%
  Relative activity remaining (thermostability): 4%
[5]; 60° C., 5 min, time 0 = 100%
  Relative activity remaining (thermostability): 34 ± 4%
[5]; 60° C., 10 min, time 0 = 100%
  Relative activity remaining (thermostability): 12 ± 2%
[5]; 65° C., 5 min, time 0 = 100%
  Relative activity remaining (thermostability): 19 ± 2%
[6]; 0.01 to 1 mM
  effect of para-chloromercuribenzoate: no discernible effect
[6]; 2-propanol exceeding 15%
  effect of 2-propanol: strongly reduces enzyme activity
[6]; Cu2+ 1.0 mM
  effect of Cu2+: little effect
[6]; EDTA 10 mM
  effect of EDTA: not affected
[6]; Fe2+ 1 mM
  enzyme inhibition by Fe2+: 50%
[6]; Mg2+ 10 mM
  enzyme inhibition by Mg2+: 19%
[6]; SDS 0.01%
  activity retained with SDS: 28%
[6]; SDS 0.1%
  effect of SDS: complete loss of activity
[6]; concentration above 15-20%
  effect of alcohols: strong inhibiting effect
[6]; dimethylformide 5%
  inhibition by dimethylformide: about 70%
[6]; dimethylsulfoxide 30%
  inhibition by dimethylsulfoxide: about 70%
[6]; zinc ion 0.1 mM
  loss of activity by zinc ion: over 90%
[6]; zinc ion 1 mM
  effect of zinc ion on cutinase activity: complete loss of activity

B2: CfCUT: mature wild-type cutinase from Cellulomonas flavigena, SEQ ID NO: 28 (protein, listed as Cellulomonas flavigena)
chain: APACPDVELVFARGTGEAAGLGIVGRPLERALAAELPGRTVVATAVDYAASSSQASAGPGSGDMVAKVRSRAAACPGTQFVLGGYSQGATVTDLALGIRTGVTAGTALPEDLAARVAAVVVYGNPLGLTRRTIAQAAPAFATRTVEYCNAGDPVCEPGGGRFTAHITYATNGTVLEGARFAAARVTAPAPTPTPGPTGTPAPVPSAEPTPAPGDTCVTASSLQHVRDGRAYPLWMRTYARGSGDPLGVLSSRTVVSLQADGTDTWRKVAAC
[1]
  Enzymatic activity of the purified variant: 26 ± 1 U/mg
  Spec. Act. (U/mg): 26 ± 1 U/mg
[3]
  Relative activity, pNP-acetate (C2): 6%
  Relative activity, pNP-butyrate (C4): 93 ± 8%
  Relative activity, pNP-caprylate (C8): 11 ± 2%
  Relative activity, pNP-decanoate (C10): 40 ± 5%
  Relative activity, pNP-myristate (C14): 47 ± 8%
  Relative activity, pNP-palmitate (C16): 100* %

B3: Cf-TP: chimeric variant: catalytic and polymer binding domains of CfCUT with T/P-rich linker domain of KrCUT, SEQ ID NO: 29 (protein)
chain: APACPDVELVFARGTGEAAGLGIVGRPLERALAAELPGRTVVATAVDYAASSSQASAGPGSGDMVAKVRSRAAACPGTQFVLGGYSQGATVTDLALGIRTGVTAGTALPEDLAARVAAVVVYGNPLGLTRRTIAQAAPAFATRTVEYCNAGDPVCEPGGGRFTAHITYATNGTVLEGARFAAARVTAAGTPTTPTPTPTPTPVPTTCVTASSLQHVRDGRAYPLWMRTYARGSGDPLGVLSSRTVVSLQADGTDTWRKVAAC
modifications: YebF carrier; Cf-TP variant
[1]
  Enzymatic activity of the purified variant: 30 ± 2 U/mg
  Spec. Act. (U/mg): 30 ± 2 U/mg
[3]
  Relative activity, pNP-acetate (C2): 5%
  Relative activity, pNP-butyrate (C4): 80 ± 3%
  Relative activity, pNP-caprylate (C8): 33 ± 1%
  Relative activity, pNP-decanoate (C10): 66 ± 8%
  Relative activity, pNP-myristate (C14): 40 ± 4%
  Relative activity, pNP-palmitate (C16): 100* %
[5]; 10 min
  Relative activity remaining (thermostability): 43 ± 3%

B4: Am-Kr: chimeric variant: AmCUT fused to the T/P-rich linker domain and polymer binding domain of KrCUT, SEQ ID NO: 27 (protein)
chain: ACSDLEIVFARGSGEAPGLGITGTPLVSDVKSALSSASVSSYAVDYAASYDQTSAGPGATDMSNHIKSTAAACPDTKFAIGGYSQGASVTDIAIGIRTYLGTGQTIPTELAPRVVAVIAFGNPLGLYGQTIKTASPTYGPKSLEFCNRGDNVCGGTGTGPGYGHLSYARDGSVDQAAAFIAKQYNASAGTPTTPTPTPTPTPVPTTCVRDSTRDHVAADRAVSLYGRAYARGSRDSLGATSSYNVVSLQQVEGGWRLVTAC
modifications: YebF carrier; Am-Kr variant
[1]
  Enzymatic activity of the purified variant: 174 ± 11 U/mg
  Spec. Act. (U/mg): 174 ± 11 U/mg
[3]
  Relative activity, pNP-acetate (C2): 9 ± 1%
  Relative activity, pNP-butyrate (C4): 75 ± 8%
  Relative activity, pNP-caprylate (C8): 100* %
  Relative activity, pNP-decanoate (C10): 72 ± 2%
  Relative activity, pNP-myristate (C14): 46 ± 8%
  Relative activity, pNP-palmitate (C16): 49 ± 6%
